Measured values reported in PMC4840321.

Experiments:
[1] = western blot, SGTA+Vpu-induced rise of 23-kDa species; conditions: glycan lost; control: wild type
[2] = cytosol/membrane fractionation ± SGTA and Vpu, anti-HA blot; conditions: glycan lost; control: wild type 23-kDa species
[3] = western blot, 23-kDa tetherin level ± SGTA and Vpu; conditions: glycan changed form; control: untreated

B1: tetherin/BST-2/CD317/HM1.24: N65A (protein)
parent chain: MASTSYDYCRVPMEDGDKRCKLLLGIGILVLLIIVILGVPLIIFTIKANSEACRDGLRAVMECRNVTHLLQQELTEAQKGFQDVEAQAATCNHTVMALMASLDAEKAQGQKKVEELEGEITTLNHKLQDASAEVERLRRENQVLSVRIADKKYYPSSQDSSSAAAPQLLIVLLGLSALLQ
expression_or_secretion [1]: no change

B2: tetherin/BST-2/CD317/HM1.24: N92A (protein)
parent chain: B1 parent chain
expression_or_secretion [1]: no change

B3: tetherin/BST-2/CD317/HM1.24: NN-AA (protein)
parent chain: B1 parent chain
expression_or_secretion [1]: abolishes
localisation_or_trafficking [2]: no change

B4: tetherin/BST-2/CD317/HM1.24: kifunensine (protein)
parent chain: B1 parent chain
expression_or_secretion [3]: no change
